Measured values taken from publication PMC4048032.

Target: VopL C-terminal Domain (VCD), residues 247–484 (Vibrio parahaemolyticus) (UniProt Q87GE5)
Assay: crystal structure

VopL C-terminal Domain (VCD), residues 247–484 (from UniProt Q87GE5 247-484) (domain or fragment)
stoichiometry N: 2
